The supplement of paper PMC9170038

Columns and labels:
[1] = system: MS2 coat protein; experiment: apparent KD of MS2 coat protein, switch OFF state (with FMN for OFF switches, without FMN for ON switches); designed switch direction (-1 OFF switch, 1 ON switch): 1; higher = weaker reporter binding; settings: FMN input: 0 or 200 uM; Eterna round: R93 (includes R88 designs)
How it was run: (§1)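 Designed RNA switches were transcribed on-chip from Illumina sequencing clusters and titrated with SNAP-549-labelled MS2 coat protein in twofold steps from 0.7 or 1.5 nM up to 3 µM. Each step lasted 0.8–1.5 h at first and 10–20 min by the end, in 100 mM Tris-HCl pH 7.5, 80 mM KCl and 4 mM MgCl2, without or with constant ligand. Apparent KD is the median, for each design, of fits to normalised cluster binding curves.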

[2] = system: MS2 coat protein; experiment: apparent KD of MS2 coat protein, switch ON state; designed switch direction (-1 OFF switch, 1 ON switch): 1; higher = weaker reporter binding; settings: FMN input: 0 or 200 uM; Eterna round: R93 (includes R88 designs)
How it was run: as §1

Row | Sequence | apparent KD of MS2 coat protein [1] [nM] | apparent KD of MS2 coat protein [2] [nM]
1 | GGAAAGGAGAGAGAGGAUAUCCAAAGGAAAACAUGAGGAUCACCCAUGUAGAAGGUAGGAAAUUGGGAGAAGGCUCAAGAAAGAG [salish99-ss2-138] | 57.2 | 21
2 | CAUCAUGCGCCUAAGGAUAUGUCCCACAAGACAUGAGGAUCACCCAUGUAGCCAAUUAAUACGGUGCAGAAGGUGGAGCGCAUGC [Qusotior] | 1080 | 315
3 | AACAUACAUGAGGAUCACCCAUGUUAGGUGGGACUAGGAUAUCAAUCGAAAGUGUUAUAAUGAGAAGGAGUAUAAA [JR_SS001_Sub015] | 209 | 127
4 | AAUGAACAUGAGGAUCACCCAUGUUUUAAUAGUUGAGGAUAUAAGGGUGAAAAUAGCACAUUAGAAGGCGAGUGUA [SameState1 Malc#15] | 38 | 39.4
5 | AAAAAACAUGAGGAUCACCCAUGUCUUCGGACGUGAGGAUAUGUACAGACUUCGGUCUGUACAGAAGGCACAAAAA [SS1 - 1033] | 397 | 38.1
6 | AAGAAACAUGAGGAUCACCCAUGUGAGAAUAACACAGGAUAUGCAAAAGAAAGAAAGAAAGCAGAAGGGUGAAGAA [Mat - Same State 1 - Tesla mod - 53] | 59.1 | 23.3
7 | AAAACACAUGAGGAUCACCCAUGUAAAAACAUGAGAGGAUAUGCAUGGAAAACAUGCUAUGCAGAAGGCUCAUGUG [SS1 - 3] | 34.6 | 23.2
8 | AAAGACGUGGCGUAGGAUAUACUAAUAUUCACAUGAGGAUCACCCAUGUUCAUAUAUAUGAACGAGUAGAAGGACGACGAAAAAA [SameState2 Malc#1] | 120 | 59.3
9 | AUAAAACAUGAGGAUCACCCAUGUAAAAAUAUGGGAGGAUAUGCGAAAUAAAAUAAAUAAGCAGAAGGCCUAAAAA [SS! MT 19] | 174 | 11.9
10 | UGGAGACAUGAGGAUCACCCAUGUGAGAAGAGGCGAGGAUAUCGAAAGAAAGAAGAGAAACGAGAAGGCGCGAGGG [salish99-SS1-043] | 52.1 | 49.7
11 | AAACCACAUGAGGAUCACCCAUGUAAAAUAAUGGGAGGAUAUACUAGAAGAAACAAAAUAGUAGAAGGCUCAAAAA [75%, Ex sub1, 34] | 97.3 | 28.2
12 | AGAAAAAAAACGCAGGAUAUCCAAAAGAAAACAUGAGGAUCACCCAUGUAAAAGAAAAUAAAAUGGGAGAAGGGCGAAAAAAAGA [Mat - Same State 2 - Eli mod - D93] | 18.5 | 9.91
13 | CGAAAGGAGAGAGAGGAUAUCCAAAGGAAAACAUGAGGAUCACCCAUGUAGAAGGUAGGAGAUUGGGAGAAGGCUCAAGAGAGGC [salish99-ss2-150] | 46.7 | 18.5
14 | AAUAUACAUGAGGAUCACCCAUGUUUUGGUGUAUGAGGAUAUAAAAAAAAUUAAAUAAAAUUAGAAGGCAUAAAUA [JR_SS001_Sub001] | 48.7 | 49.2
15 | AGGAAACAUGAGGAUCACCCAUGUAAAAAUAUGGGAGGAUAUACGAAGACGAAAGUGAGAGUAGAAGGCCUAAAAG [Garnet 8] | 87.7 | 30.9
16 | UUUAAUUAUACGAAGGAUAUCGGUAAUUAGACAUGAGGAUCACCCAUGUUAUAUGGUUAAAUAUUCGAGAAGGUCGCGGGUGAAC [JR_SS002_Sub507] | 33.6 | 47.8
17 | AAUAUACAUGAGGAUCACCCAUGUUUUAAUAGCUGAGGAUAUACGGGUGAAAAUAGCAUAGUAGAAGGCGGGUGUA [SameState1 Malc#9] | 80 | 92.2
18 | AGGAGACAUGAGGAUCACCCAUGUGAGAAGAGGCGAGGAUAUCGAAAGAAAGAAGAGAAACGAGAAGGCGCGAGUA [salish99-SS1-018] | 40.8 | 24.9
19 | AACAAUCUAUCUGAGGAUAUCAUGAAAAAGACAUGAGGAUCACCCAUGUACCAGGAAACUGGUUAUGAGAAGGCAGAUAGAUUGA [SS2: 1116] | 14.4 | 9.32
20 | AGGAAACAUGAGGAUCACCCAUGUAAAAAAAUGGGAGGAUAUCCGCAUUAAUUAAAUGAAGGAGAAGGCCUAAAAA [71%, Same state of confusion2, 5] | 63.1 | 21.6
21 | GGCUGCAAUUAUGAGGAUAUGUUUGGAUGAACAUGAGGAUCACCCAUGUGGCGAUAGCCGUCUAUGCAGAAGGUGUAGUGGCGGC [Ertion] | 59.1 | 25.9
22 | UUGCAGUACGGGUAGGAUAUGUAGGGUGGUACAUGAGGAUCACCCAUGUGUCCACCCUUCGACCGGCAGAAGGGCCUGUCACUGC [Lerieseser] | 17.3 | 17.5
